US20100092522A1 (published 2010)

The binders below were run against T1, HLA-A0201 molecule on T2 cells (TAP-, HLA-A0201+) (human) (assay: T2 thermostabilization assay, flow cytometry of surface HLA-A2 (BB7.2), fluorescence index; native peptide as reference).
T1 construct: MHC class I molecule without a defined peptide; also called HLA-A2.1
Method: (§1) T2 cells (TAP⁻, HLA-A0201⁺) were incubated overnight at 27° C. at a concentration of 1×10⁶ cells/ml in FCS-free RPMI medium supplemented with 5 μg/ml human β₂m (Sigma, St Louis, Mo.) in the absence (negative control) or presence of either a positive reference tyrosinase peptide or test peptides at various final concentrations (50, 10, 1, and 0.1 micrograms (μg)/ml). Following a 4-hour incubation with 5 μg/ml brefeldin A (Sigma), T2 cells were labeled for 30 minutes at 4° C. with a saturating concentration of anti-HLA-A2.1 (BB7.2) mAb, then washed twice. Cells were then incubated for 30 minutes, 4° C. with a saturating concentration of FITC-conjugated goat IgG F(ab′)2 anti-mouse Ig (Caltag, San Francisco, Calif.), washed twice, fixed in PBS/1% paraformaldehyde and analyzed using a FACS Calibur® cytofluorometer (Becton Dickinson, Immunocytometry Systems, San Jose, Calif.).
(§2) Following initial evaluation of peptide binding at time 0, cells were washed in RPMI complete medium to remove free peptides and incubated in the continuous presence of 0.5 μg/ml brefeldin-A for 2, 4, 6 or 8 hours.

Binding result, binds:
SLGEQQYSV [WT1 B (native)]
ALLPAVPSL [WT1 C (native)]
NLGATLKGV [WT1 D (native)]
RMFPNAPYL (also called WT1A (126-134)) [WT1 A (native)]

Each binder was assayed against T1, HLA-A0201 molecule on T2 cells (TAP-, …) (assay: T2 stabilization assay of Example 1, as told in the description).
Method: as §1, §2

Binding result, binds:
YLLPAVPSL [WT1 C1 (analogue)]

What follows are binders tested against T1, HLA-A0201 molecule on T2 cells (TAP-, …) (assay: T2 thermostabilization assay, flow cytometry of surface HLA-A2 (BB7.2), fluorescence index).
Method: as §1, §2

Binding result, binds:
YLGEQQYSV [WT1 B1 (analogue)]
YLGATLKGV [WT1 D1 (analogue)]
YMFPNAPYL [WT1 A1 (analogue)]

These binders were tested against T2, HLA-A0301 molecule on Raji HLA-A0301 cells (human) (assay: thermostabilization assay on Raji HLA-A0301 cells, fluorescence index).
T2 construct: It says only 'thermostabilization assays using; Raji HLA-A0301 cells'

Binding result, binds:
FMCAYPGCNK [A3 WT1 C (native)]
FMYAYPGCNK [A3 WT1 C1 (analogue)]
FMCAYPFCNK [A3 WT1 C2 (analogue)]
FMYAYPFCNK [A3 WT1 C3 (analogue)]
KLSHLQMHSR [A3 WT1 D (native)]
KLYHLQMHSK [A3 WT1 D3 (analogue)]
KLSHLQMHSK [A3 WT1 D2 (analogue)]
KLYHLQMHSR [A3 WT1 D1 (analogue)]
QMNLGATLK [A3 WT1 B (native)]
QMYLGATLK [A3 WT1 B1 (analogue)]
QMYLGVTLK [A3 WT1 B3 (analogue)]
QMNLGVTLK [A3 WT1 B2 (analogue)]
NMHQRNMTK [A3 WT1 A (native)]
NMHQRVMTK [A3 WT1 A2 (analogue)]
NMYQRNMTK [A3 WT1 A1 (analogue)]
NMYQRVMTK [A3 WT1 A3 (analogue)]
